These results are taken from paper PMC8464830.

What all share (assay): SPR
A general note: In SPR one partner is held on a chip, and binding of the other changes the refractive index at the surface.

Assay [1] deals with HIV-1 MA protein from clade B (LAI), full-length (HIV-1 clade B (LAI)).
Assay [2] deals with HIV-1 MA protein from clade B (NL4-3), full-length (HIV-1 clade B (NL4-3)).
The target of assay [3] is HIV-1 MA protein from clade D (94UG114.1), full-length (HIV-1 clade D (94UG114.1)).

pKd: −log10 of the molar value.

Usually pKd stands for the Kd on a negative log10 scale, so that one unit is a factor of ten. Read a low pKd as a high Kd.

In the case of “human Calmodulin-1 (from UniProt P0DP23 1-149) (natural protein)”, the values for the negative logarithm of the Kd (pKd) in assay [1], in assay [2] and in assay [3] were 4.31, 4.56 and 4.48, respectively.
